{"source": "patent US20040132642A1", "about": "“Methods of inhibiting metastasis or growth of a tumor cell” (Government of the U.S.A., represented by the Secretary, …, priority 2002, published 2004)", "tested_on": "CXCR4-B16 cells", "assay": "adhesion of CXCR4-B16 cells to resting DMEC in parallel plate flow chamber", "format": "cell-based, murine", "details": "exogenously added chemokine", "protocol": "Prior to interaction with tumor cells, resting confluent DMEC or LMEC were exposed to 100 ng/ml of recombinant CXCL12 or CCL21 for 15 min at 20° C. as described (Cinamon et al., Nat. Immunol. 2: 515-22 (2001)). After unbound chemokine was washed away, calcein-AM-labeled (Molecular Probes, Eugene, Oreg.) CXCR4- or pLNCX2-B16 cells (2.5×10^5/ml in B16 medium) were injected at 1.5 dynes/cm^2 into a parallel plate flow chamber (Glycotech, Gaithersburg, Md.) containing confluent DMEC or LMEC. In some cases, tumor cells were treated with pertussis toxin (PTX, Calbiochem, San Diego, Calif.) at 100 ng/ml for 2 hours at 37° C. to block Gi-protein-coupled signaling. After two min, flow was stopped, which enabled B16 cells to interact with MEC in the absence of shear stress. After 5 min, shear was re-established at 1.5 dynes/cm^2 for up to 2 min in order to detach unbound cells; adherent cells were digitally photographed in 5-6 random fields (each field=1.18 mm^2) with excitation at 488 nm and emission at 513 nm using sufficient exposure time (˜1 s) to allow distinction between non-moving and moving cells (which appeared as dim streaks) (Fitzhugh et al. (2000), supra). Cells were then counted with the software program IPlab (Scanalytics, Fairfax, Va.). […]"}
{"molecule": "CCL21: recombinant chemokine used as control on DMEC (protein, UniProt O00585 24-134, looked up) C-C motif chemokine 21: SDGGAQDCCLKYSQRKIPAKVVRSYRKQEPSLGCSIPAILFLPRKRSQAELCADPKELWVQQLMQHLDKTPSPQKPAQGCRKDRGASKTGKKGKGSKGCKRTERSQTPKGP", "values": [{"measurement": "stimulation of adhesion of CXCR4-B16 cells to DMEC", "value": "no effect"}]}
